Experimental data: patent publication US20180355056A1 (Novartis, published 2018)

Legend:
[1] = target: T1, Human FXI activated (human, UniProt P03951 19-387; P03951 388-625); assay: SET KD compared with the BIACORE KD for the FXI catalytic domain
T1 construct: The activity assay used Kordia HFXIa 1111a; also called huFXIa

[2] = target: T2, Human FXI zymogen (human, UniProt P03951 19-625); assay: as above
T2 construct: also called huFXI; zymogen FXI
T2 sequence (P03951 19-625 C226S): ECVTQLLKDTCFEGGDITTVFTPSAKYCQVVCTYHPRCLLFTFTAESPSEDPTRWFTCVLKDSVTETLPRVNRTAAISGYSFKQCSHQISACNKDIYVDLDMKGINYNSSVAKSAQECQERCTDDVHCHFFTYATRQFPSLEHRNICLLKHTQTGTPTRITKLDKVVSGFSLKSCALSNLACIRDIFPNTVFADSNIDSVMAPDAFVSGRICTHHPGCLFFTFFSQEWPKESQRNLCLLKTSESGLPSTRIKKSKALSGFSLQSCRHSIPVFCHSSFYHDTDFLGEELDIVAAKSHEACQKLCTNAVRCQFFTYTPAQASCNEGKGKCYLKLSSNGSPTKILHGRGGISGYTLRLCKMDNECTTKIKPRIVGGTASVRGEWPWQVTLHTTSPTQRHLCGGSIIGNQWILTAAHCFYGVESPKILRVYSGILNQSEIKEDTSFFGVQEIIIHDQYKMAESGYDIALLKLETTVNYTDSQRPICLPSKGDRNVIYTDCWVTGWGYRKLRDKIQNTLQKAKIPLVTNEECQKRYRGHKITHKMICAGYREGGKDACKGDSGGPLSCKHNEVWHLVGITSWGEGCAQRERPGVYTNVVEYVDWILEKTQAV

T1 sequence (P03951 19-387 C226S, chain 1 of 2): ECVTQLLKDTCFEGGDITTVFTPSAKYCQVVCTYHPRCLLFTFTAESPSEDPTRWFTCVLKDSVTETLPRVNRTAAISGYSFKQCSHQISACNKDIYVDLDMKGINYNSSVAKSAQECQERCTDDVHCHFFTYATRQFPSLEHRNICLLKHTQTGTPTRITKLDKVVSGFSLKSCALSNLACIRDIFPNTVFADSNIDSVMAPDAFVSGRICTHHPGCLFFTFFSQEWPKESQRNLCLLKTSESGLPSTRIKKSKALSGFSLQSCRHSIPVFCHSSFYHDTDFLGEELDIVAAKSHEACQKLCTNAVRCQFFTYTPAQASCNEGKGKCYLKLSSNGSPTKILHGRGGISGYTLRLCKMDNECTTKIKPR
T1 sequence (P03951 388-625, chain 2 of 2): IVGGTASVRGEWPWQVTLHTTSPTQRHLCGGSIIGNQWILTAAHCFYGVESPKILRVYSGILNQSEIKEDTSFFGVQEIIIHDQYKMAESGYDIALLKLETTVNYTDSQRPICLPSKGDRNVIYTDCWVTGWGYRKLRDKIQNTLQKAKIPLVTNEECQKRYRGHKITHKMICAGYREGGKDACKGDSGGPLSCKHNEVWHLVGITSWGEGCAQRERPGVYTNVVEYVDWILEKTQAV

B1: NOV1401-Fab (Fab, V domains shown)
VH: QVQLLESGGGLVQPGGSLRLSCAASGFTFSTAAMSWVRQAPGKGLEWVSGISGSGSSTYYADSVKGRFTISRDNSKNTLYLQMNSLRAEDTAVYYCARELSYLYSGYYFDYWGQGTLVTVSS
VL: QSVLTQPPSASGTPGQRVTISCSGSSSNIGSNDVSWYQQLPGTAPKLLIYKNYNRPSGVPDRFSGSKSGTSASLAISGLQSEDEADYYCSAWDQRQFDVVFGGGTKLTVLG
notes: also called Fab portion of NOV1401
[1]
  fold higher affinity than to the catalytic domain: 66 times
[2]
  fold higher affinity than to the catalytic domain: 300 times
